Here are results for three proteins from patent US20030143656.

One series has as its target T1, T308tide.
T1 chain: KTFCGTPEYLAPEVRR

Series [1] addresses 412E-p70 S6K-T2 (His-tagged, insect cells), P23443.
For series [2], the target named is GST-SGK1[T422D] (lacking the N-terminal 60 amino acids), O00141.
In a further series the target is T2, D978A-PIFtide.
T2 chain: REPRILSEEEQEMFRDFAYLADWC

For series [3], the target named is T3, GST-SGK1 (lacking the N-terminal 60 amino acids), O00141.
T3 chain: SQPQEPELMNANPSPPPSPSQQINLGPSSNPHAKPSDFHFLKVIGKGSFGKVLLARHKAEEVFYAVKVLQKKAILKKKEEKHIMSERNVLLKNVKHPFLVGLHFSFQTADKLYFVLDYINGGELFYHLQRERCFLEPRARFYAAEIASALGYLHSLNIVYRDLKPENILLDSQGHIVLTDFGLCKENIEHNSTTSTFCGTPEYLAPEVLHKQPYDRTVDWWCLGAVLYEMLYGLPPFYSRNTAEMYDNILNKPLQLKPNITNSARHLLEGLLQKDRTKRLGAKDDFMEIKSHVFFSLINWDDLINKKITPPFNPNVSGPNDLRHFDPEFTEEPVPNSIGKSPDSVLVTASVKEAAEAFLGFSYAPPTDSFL

In another series the target is T4, GST-?PH-PKBα, P31749.
T4 chain: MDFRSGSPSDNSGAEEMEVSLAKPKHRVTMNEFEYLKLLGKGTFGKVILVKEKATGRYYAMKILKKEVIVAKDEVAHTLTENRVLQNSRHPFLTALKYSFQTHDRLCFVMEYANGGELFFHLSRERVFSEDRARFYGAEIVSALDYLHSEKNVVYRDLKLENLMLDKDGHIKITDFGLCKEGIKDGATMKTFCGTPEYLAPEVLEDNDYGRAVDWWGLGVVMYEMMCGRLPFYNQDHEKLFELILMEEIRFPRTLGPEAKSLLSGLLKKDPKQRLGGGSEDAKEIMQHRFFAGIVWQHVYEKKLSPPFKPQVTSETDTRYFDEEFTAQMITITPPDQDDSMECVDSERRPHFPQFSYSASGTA

The next series concerns the target T5, SGK1[F421A], O00141.
T5 chain: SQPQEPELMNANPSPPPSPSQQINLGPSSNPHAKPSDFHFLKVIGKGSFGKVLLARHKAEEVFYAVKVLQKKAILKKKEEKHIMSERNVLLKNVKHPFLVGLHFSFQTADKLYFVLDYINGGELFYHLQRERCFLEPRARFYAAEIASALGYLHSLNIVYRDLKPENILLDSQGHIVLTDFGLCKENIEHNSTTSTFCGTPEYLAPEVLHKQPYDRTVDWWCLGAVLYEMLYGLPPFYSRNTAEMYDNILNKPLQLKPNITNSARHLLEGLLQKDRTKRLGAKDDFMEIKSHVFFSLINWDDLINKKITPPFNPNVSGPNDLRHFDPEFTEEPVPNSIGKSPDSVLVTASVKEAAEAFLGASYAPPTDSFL

Series [4] has as its target T6, GST-?PH-PKBα[S473D], P31749.
T6 chain: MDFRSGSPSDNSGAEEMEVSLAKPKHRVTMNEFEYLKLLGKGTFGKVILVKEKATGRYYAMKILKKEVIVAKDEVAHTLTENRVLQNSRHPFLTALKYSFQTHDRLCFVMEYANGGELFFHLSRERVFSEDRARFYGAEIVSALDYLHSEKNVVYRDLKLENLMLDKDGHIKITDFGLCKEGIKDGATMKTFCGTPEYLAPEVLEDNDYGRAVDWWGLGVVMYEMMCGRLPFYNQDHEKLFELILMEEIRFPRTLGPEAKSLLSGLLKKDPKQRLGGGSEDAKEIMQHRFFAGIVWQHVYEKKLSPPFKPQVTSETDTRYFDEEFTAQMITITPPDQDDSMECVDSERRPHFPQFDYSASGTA

In another series the target is T7, PIFtide.
T7 chain: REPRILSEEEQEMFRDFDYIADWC

For series [5], the target named is GST-S6K1-T2[F411A], P23443.
For series [6], the target named is T8, GST-?PH-PKBα[F472A], P31749.
T8 chain: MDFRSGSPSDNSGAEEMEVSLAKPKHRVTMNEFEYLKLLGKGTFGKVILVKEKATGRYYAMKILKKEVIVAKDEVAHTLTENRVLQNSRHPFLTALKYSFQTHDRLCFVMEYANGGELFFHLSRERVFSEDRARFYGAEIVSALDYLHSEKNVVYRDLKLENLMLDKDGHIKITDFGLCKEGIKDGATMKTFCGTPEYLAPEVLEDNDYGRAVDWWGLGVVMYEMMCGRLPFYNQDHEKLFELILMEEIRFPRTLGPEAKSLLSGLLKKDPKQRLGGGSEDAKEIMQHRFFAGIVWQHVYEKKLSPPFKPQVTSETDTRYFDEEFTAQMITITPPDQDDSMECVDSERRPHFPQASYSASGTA

The target in series [7] is p70 S6K-T2 (His-tagged, insect cells), P23443.
Chain of p70 S6K-T2 (His-tagged, insect cells), P23443 (P23443 whole entry, looked up): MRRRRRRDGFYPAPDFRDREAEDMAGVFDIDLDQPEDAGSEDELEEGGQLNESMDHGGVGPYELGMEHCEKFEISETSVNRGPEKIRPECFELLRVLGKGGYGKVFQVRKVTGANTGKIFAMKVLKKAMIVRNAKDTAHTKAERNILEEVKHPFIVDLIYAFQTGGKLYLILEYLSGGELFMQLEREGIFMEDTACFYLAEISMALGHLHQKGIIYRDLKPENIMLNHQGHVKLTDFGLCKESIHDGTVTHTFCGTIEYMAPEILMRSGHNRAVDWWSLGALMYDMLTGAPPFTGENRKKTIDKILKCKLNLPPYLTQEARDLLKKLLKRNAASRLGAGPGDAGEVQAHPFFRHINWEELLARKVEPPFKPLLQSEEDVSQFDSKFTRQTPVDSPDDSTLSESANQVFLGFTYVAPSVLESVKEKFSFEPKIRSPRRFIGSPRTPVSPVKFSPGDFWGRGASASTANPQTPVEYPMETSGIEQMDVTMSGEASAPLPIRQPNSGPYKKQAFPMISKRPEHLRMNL

Chain of GST-FL-PKB 473D, P31749 (P31749 other isoform, or with tags, fused parts or gaps): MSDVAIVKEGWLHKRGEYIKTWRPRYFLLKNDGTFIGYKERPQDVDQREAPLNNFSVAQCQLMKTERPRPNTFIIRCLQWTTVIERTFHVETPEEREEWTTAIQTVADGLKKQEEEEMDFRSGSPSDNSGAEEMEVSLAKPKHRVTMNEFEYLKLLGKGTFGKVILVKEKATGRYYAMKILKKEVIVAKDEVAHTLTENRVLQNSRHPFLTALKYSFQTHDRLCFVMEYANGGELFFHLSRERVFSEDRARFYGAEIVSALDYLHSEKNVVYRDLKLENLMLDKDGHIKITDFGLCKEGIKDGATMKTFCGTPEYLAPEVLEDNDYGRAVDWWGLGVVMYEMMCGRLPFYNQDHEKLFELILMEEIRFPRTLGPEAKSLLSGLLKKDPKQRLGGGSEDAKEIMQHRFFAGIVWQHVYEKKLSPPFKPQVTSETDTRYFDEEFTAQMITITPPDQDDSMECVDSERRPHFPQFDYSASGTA
Chain of 412E-p70 S6K-T2 (His-tagged, insect cells), P23443 (P23443 whole entry, looked up): as the sequence (P23443 whole entry, looked up) above
Chain of GST-PKBα[F472A], P31749 (P31749 whole entry F472A): as the sequence (P31749 other isoform, or with tags, fused parts or gaps) above, with F472A, D473S counted along it
Chain of PDKtide (chain, as listed by the source): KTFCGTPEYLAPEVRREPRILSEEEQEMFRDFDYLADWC
Chain of GST-S6K1-T2[F411A], P23443 (P23443 1-421 F411A): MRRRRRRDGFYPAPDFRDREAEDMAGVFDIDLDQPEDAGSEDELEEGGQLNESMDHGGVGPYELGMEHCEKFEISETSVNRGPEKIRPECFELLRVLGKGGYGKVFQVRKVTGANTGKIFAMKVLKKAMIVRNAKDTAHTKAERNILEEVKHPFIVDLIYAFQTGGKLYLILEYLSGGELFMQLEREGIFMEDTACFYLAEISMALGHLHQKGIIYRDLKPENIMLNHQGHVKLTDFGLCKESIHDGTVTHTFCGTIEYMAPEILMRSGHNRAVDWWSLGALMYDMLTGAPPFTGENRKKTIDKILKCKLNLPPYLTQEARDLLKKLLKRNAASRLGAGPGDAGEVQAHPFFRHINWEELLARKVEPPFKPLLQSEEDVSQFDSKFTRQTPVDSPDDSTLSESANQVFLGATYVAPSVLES

B1: His-PDK1 (protein)
chain: DGTAAEPRPGAGSLQHAQPPPQPRKKRPEDFKFGKILGEGSFSTVVLARELATSREYAIKILEKRHIIKENKVPYVTRERDVMSRLDHPFFVKLYFTFQDDEKLYFGLSYAKNGELLKYIRKIGSFDETCTRFYTAEIVSALEYLHGKGIIHRDLKPENILLNEDMHIQITDFGTAKVLSPESKQARANSFVGTAQYVSPELLTEKSACKSSDLWALGCIIYQLVAGLPPFRAGNEYLIFQKIIKLEYDFPEKFFPKARDLVEKLLVLDATKRLGCEEMEGYGPLKAHPFFESVTWENLHQQTPPKLTAYLPAMSEDDEDCYGNYDNLLSQFGCMQVSSSSSSHSLSASDTGLPQRSGSNIEQYIHDLDSNSFELDLQFSEDEKRLLLEKQAGGNPWHQFVENNLILKMGPVDKRKGLFARRRQLLLTEGPHLYYVDPVNKVLKGEIPWSQELRPEAKNFKTFFVHTPNRTYYLMDPSGNAHKWCRKIQEVWRQRYQSHPDAAVQ
On to B1, for which the “Km of PDK1 for the peptide substrate” value with T308tide is recorded as “the Km was very high (>10 mM)”. In addition, in the series with PDKtide, the “rate of phosphorylation at 100 µM, against T308tide” value is recorded as “phosphorylated at a rate over 100-fold greater than that using T308tide”.

B2: GST-PDK1 (wild type) (protein)
chain: MARTTSQLYDAVPIQSSVVLCSCPSPSMVRTQTESSTPPGIPGGSRQGPAMDGTAAEPRPGAGSLQHAQPPPQPRKKRPEDFKFGKILGEGSFSTVVLARELATSREYAIKILEKRHIIKENKVPYVTRERDVMSRLDHPFFVKLYFTFQDDEKLYFGLSYAKNGELLKYIRKIGSFDETCTRFYTAEIVSALEYLHGKGIIHRDLKPENILLNEDMHIQITDFGTAKVLSPESKQARANSFVGTAQYVSPELLTEKSACKSSDLWALGCIIYQLVAGLPPFRAGNEYLIFQKIIKLEYDFPEKFFPKARDLVEKLLVLDATKRLGCEEMEGYGPLKAHPFFESVTWENLHQQTPPKLTAYLPAMSEDDEDCYGNYDNLLSQFGCMQVSSSSSSHSLSASDTGLPQRSGSNIEQYIHDLDSNSFELDLQFSEDEKRLLLEKQAGGNPWHQFVENNLILKMGPVDKRKGLFARRRQLLLTEGPHLYYVDPVNKVLKGEIPWSQELRPEAKNFKTFFVHTPNRTYYLMDPSGNAHKWCRKIQEVWRQRYQSHPDAAVQ
For B2, the relative phosphorylation of the substrate by PDK1-wt, +PIFtide (relative, PKB[S473D]=100) was found to be 7.4 in [1]; 9.6 in series [2]; 3.8 in series [3]; 0.25 in the series with GST-?PH-PKBα, P31749; 85.4 with GST-FL-PKB 473D, P31749; 0.2 in series [4]. For the same protein, the relative phosphorylation of the substrate by PDK1-wt, +PIFtide (relative, PKB[S473D]=100) with GST-FL-PKB, P31749 was 19.3; in series [7], 0.58. The relative phosphorylation of the substrate by PDK1-wt, no PIFtide (relative, PKB[S473D]=100) in series [1] was 54; in series [2], 71; in series [3], 8; in the series with GST-?PH-PKBα, P31749, 0.4; in the series with GST-FL-PKB 473D, P31749, 100; in series [4] it was 0.9. Also, the relative phosphorylation of the substrate by PDK1-wt, no PIFtide (relative, PKB[S473D]=100) with GST-FL-PKB, P31749 came out at 28; in series [7], 10.4. The “concentration needed to obtain 50% activation of PDK1 (T308tide as substrate)” value is listed as 1.1 µM for D978A-PIFtide with D978A-PIFtide and 0.14 µM for wt-PIFtide with PIFtide. In addition, the “rate of phosphorylation by PDK1 compared to the wild type enzyme” value with SGK1[F421A], O00141 was “markedly reduced”; with GST-PKBα[F472A], P31749 it was “PKB[F472A] was phosphorylated at a similar rate to the wild type PKB”; in [5], “markedly reduced”; in series [6], “markedly reduced”. For the same protein, the “phosphorylation of p70 S6K at Thr412 by PDK1 (T412-P immunoblot)” value with PIFtide is listed as “The 24 residue PIF peptide prevented PDK1 from phosphorylating the p70 S6K at Thr412”.

B3: GST-PDK1 L155E (protein)
chain: MARTTSQLYDAVPIQSSVVLCSCPSPSMVRTQTESSTPPGIPGGSRQGPAMDGTAAEPRPGAGSLQHAQPPPQPRKKRPEDFKFGKILGEGSFSTVVLARELATSREYAIKILEKRHIIKENKVPYVTRERDVMSRLDHPFFVKLYFTFQDDEKEYFGLSYAKNGELLKYIRKIGSFDETCTRFYTAEIVSALEYLHGKGIIHRDLKPENILLNEDMHIQITDFGTAKVLSPESKQARANSFVGTAQYVSPELLTEKSACKSSDLWALGCIIYQLVAGLPPFRAGNEYLIFQKIIKLEYDFPEKFFPKARDLVEKLLVLDATKRLGCEEMEGYGPLKAHPFFESVTWENLHQQTPPKLTAYLPAMSEDDEDCYGNYDNLLSQFGCMQVSSSSSSHSLSASDTGLPQRSGSNIEQYIHDLDSNSFELDLQFSEDEKRLLLEKQAGGNPWHQFVENNLILKMGPVDKRKGLFARRRQLLLTEGPHLYYVDPVNKVLKGEIPWSQELRPEAKNFKTFFVHTPNRTYYLMDPSGNAHKWCRKIQEVWRQRYQSHPDAAVQ
With B3, the relative phosphorylation of the substrate by PDK1-L155E, +PIFtide (relative, PKB[S473D]=100) came to 0.108 in series [1]; 3.4 in series [2]; 2.4 in [3]; 0.25 in the series with GST-?PH-PKBα, P31749; 162 with GST-FL-PKB 473D, P31749; 0.15 in [4]. The relative phosphorylation of the substrate by PDK1-L155E, +PIFtide (relative, PKB[S473D]=100) with GST-FL-PKB, P31749 came to 35; in series [7], 0.27. The relative phosphorylation of the substrate by PDK1-L155E, no PIFtide (relative, PKB[S473D]=100) was 0.5 in series [1]; 3.5 in series [2]; 3.3 in series [3]; 0.23 with GST-?PH-PKBα, P31749; 178 in the series with GST-FL-PKB 473D, P31749; 0.18 in series [4]. In addition, the relative phosphorylation of the substrate by PDK1-L155E, no PIFtide (relative, PKB[S473D]=100) was determined as 35 with GST-FL-PKB, P31749 and 0.6 in series [7].
